The record followed here is US20240092930A1.

The target in assay [1] is human Trop-2 on the surface of cells (CHO/Trop-2 cells; BxPC-3 cells; NCI-N87 cells) (human) (UniProt P09758). The assay is described as follows: cell-based or functional assay.
The target is the same in assay [2]. Briefly: FACS, BxPC cells, antibody left on the surface after 3 h at 37° C.
Assay [3] shares this target. The assay is described as follows: FACS, BxPC cells, antibody left on the surface, control kept at 4° C. For orientation: In flow cytometry, cells or beads pass a laser one at a time.

Sequence of human Trop-2 on the surface of cells (CHO/Trop-2 cells; BxPC-3 cells; NCI-N87 cells) (human) (P09758 27-323): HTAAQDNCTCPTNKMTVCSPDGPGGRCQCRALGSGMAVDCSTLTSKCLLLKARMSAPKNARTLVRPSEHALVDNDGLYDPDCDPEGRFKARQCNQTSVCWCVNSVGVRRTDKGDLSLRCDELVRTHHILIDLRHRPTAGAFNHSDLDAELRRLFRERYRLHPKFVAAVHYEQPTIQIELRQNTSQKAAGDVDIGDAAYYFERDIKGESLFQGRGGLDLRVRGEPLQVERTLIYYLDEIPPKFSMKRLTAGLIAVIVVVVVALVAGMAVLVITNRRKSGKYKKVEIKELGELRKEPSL

Regarding IgG1 isotype control antibody NC-IgG1, in assay [1], the Internalization percentage (%), 3 h, BxPC cells, FACS was 3.29%; the Internalization percentage, 1 h, BXPC-3 cells, FACS was -63%; the Internalization percentage, 1 h, NCI-N87 cells, FACS is -95%. This substance also displayed a Fluorescence intensity (MFI), 37° C. in assay [2] of 715 MFI. The Fluorescence intensity (MFI), 4° C. in assay [3] came out at 739 MFI.
